From patent publication US20240270857A1 (CHIA TAI TIANQING PHARMACEUTICAL GROUP, published 2024)

T1: IL-36R naturally expressed on OVCAR8 cells and on normal human epidermal keratinocytes (NHK cells) (human, UniProt Q9HB29 20-575)
T1 sequence (looked up): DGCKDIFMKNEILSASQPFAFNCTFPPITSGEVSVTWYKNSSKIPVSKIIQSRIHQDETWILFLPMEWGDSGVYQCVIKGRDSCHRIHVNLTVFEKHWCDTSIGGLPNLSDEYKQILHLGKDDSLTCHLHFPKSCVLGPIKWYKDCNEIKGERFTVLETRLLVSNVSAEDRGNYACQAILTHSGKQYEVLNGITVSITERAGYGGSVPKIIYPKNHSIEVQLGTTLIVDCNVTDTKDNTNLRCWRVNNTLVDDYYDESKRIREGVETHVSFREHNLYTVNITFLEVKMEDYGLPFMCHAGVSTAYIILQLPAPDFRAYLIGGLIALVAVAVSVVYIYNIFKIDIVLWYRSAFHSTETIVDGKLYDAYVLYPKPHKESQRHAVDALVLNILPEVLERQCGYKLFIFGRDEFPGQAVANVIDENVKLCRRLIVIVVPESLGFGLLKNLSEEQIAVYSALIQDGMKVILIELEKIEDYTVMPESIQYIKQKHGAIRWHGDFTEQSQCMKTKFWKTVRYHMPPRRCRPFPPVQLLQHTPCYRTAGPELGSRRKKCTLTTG

T2: human IL-36R overexpressed on 293T-hIL36R-NFκB cells (human, UniProt Q9HB29 20-575)
T2 construct: Entry includes the signal peptide; also called IL1RL2; IL-1Rrp2
T2 sequence: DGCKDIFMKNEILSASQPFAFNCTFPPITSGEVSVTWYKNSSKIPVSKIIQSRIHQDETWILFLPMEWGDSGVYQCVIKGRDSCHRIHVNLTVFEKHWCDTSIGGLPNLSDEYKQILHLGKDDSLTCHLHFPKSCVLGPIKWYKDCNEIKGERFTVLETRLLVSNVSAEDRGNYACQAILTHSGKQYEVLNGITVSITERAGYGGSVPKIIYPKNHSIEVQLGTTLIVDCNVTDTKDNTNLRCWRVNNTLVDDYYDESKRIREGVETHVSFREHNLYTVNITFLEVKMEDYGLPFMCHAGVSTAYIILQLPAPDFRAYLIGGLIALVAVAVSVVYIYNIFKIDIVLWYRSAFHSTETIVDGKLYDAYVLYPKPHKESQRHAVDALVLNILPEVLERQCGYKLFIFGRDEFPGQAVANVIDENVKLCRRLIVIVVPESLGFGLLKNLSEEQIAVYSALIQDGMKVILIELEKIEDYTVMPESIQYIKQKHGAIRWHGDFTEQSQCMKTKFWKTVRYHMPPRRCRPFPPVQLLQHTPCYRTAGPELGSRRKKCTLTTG


Key:
[1] = target: T1, IL-36R naturally expressed on OVCAR8 …; assay: cell-based or functional assay
[2] = target: T2, human IL-36R overexpressed on …; assay: FACS on 293T-hIL36R-NFκB cells, ratio of MFI to background MFI
Method: After the cells was washed with PBS, the cells were resuspended with 100 μL of PBS and then the fluorescence signal was detected using a flow cytometer (BD, Accuri C6). […] The ratio was the ratio of mean fluorescence intensity (MFI) of the experimental group/the background MFI, and the resulting data were analyzed using GraphPad Prism.
Affinity, binding and blocking assays for humanized antibodies hz72C1-1.1, hz72C1-1.2, hz72C1-1.3, hz72C1-2.1, hz72C1-2.2 and hz72C1-2.3 as well as hz84C4-1.1, hz84C4-1.2, hz84C4-1.3, hz84C4-1.4, hz84C4-1.5, hz84C4-2.1, hz84C4-2.2, hz84C4-2.3, hz84C4-2.4 and hz84C4-2.5 were performed according to the methods of Example 4, Example 5. Example 6, Example 7 and Example 8.

| Binder | IC50 (M); hIL36α; IL-8 production [1] [M] | IC50 (M); hIL36αβγ; IL-8 production [1] [M] | IC50 (M); hIL36β; IL-8 production [1] [M] | IC50 (M); hIL36γ; IL-8 production [1] [M] | Maximum inhibition rate %; hIL36α; IL-8 production [1] [%] | Maximum inhibition rate %; hIL36αβγ; IL-8 production [1] [%] | Maximum inhibition rate %; hIL36β; IL-8 production [1] [%] | Maximum inhibition rate %; hIL36γ; IL-8 production [1] [%] | EC50 [2] [nM] |
| --- | --- | --- | --- | --- | --- | --- | --- | --- | --- |
| hz84C4-1.1 (antibody, human IgG4 S228P, kappa, V domains shown, Humanized, human IgG4 / kappa) VH: QVQLVQSGAEVKKPGASVKVSCKASGYFFTSYWMNWVRQAPGQGLEWMGMIHPYDSETRYAQKFQGRVTMTVDKSTSTVYMELSSLRSEDTAVYYCASSTTAFAYWGQGTLVTVSS VL: DIQMTQSPSSLSASVGDRVTITCRASQDIGNALNWYQQKPGKAPKRLIYATSSLDPGVPSRFSGSRSGTDFTLTISSLQPEDFATYYCLQYASSPYTFGQGTKVEIKR | 2.62e-11 | 5.25e-11 | 2.27e-11 | 1.44e-11 | 103 | 93.7 | 103 | 103 | ~5.28 |
| hz84C4-1.4 (antibody, human IgG4 S228P, kappa, V domains shown, Humanized, human IgG4 / kappa) VH: QVQLVQSGAEVKKPGASVKVSCKASGYYFTSYWMNWVRQAPGQGLEWMGMIHPYDSETRLAQKFKGRVTMTVDKSTSTVYMELSSLRSEDTAVYYCASSTTAFAYWGQGTLVTVSS VL: DIQMTQSPSSLSASVGDRVTITCRASQDIGNALNWYQQKPGKAPKRLIYATSSLDPGVPSRFSGSRSGTDFTLTISSLQPEDFATYYCLQYASSPYTFGQGTKVEIKR | 3.71e-11 | 5.76e-11 | 3.48e-11 | 5.01e-12 | 94.4 | 92.5 | 93.5 | 109 | 5.75 |
| hz84C4-1.5 (antibody, human IgG4 S228P, kappa, V domains shown, Humanized, human IgG4 / kappa) VH: QVQLVQSGAEVKKPGASVKVSCKVSGYFFTSYWMNWVNQAPGQGLEWMGMIHPYDSETRLAQKFKGRVTMTVDKSTSTVYMELSSLRSEDTAVYYCASSTTAFAYWGQGTLVTVSS VL: DIQMTQSPSSLSASVGDRVTITCRASQDIGNALNWYQQKPGKAPKRLIYATSSLDPGVPSRFSGSRSGTDFTLTISSLQPEDFATYYCLQYASSPYTFGQGTKVEIKR | 2.87e-11 | 2.77e-11 | 1.55e-11 | 1.27e-11 | 101 | 97 | 101 | 109 | ~5.1 |
| hz84C4-2.1 (antibody, human IgG4 S228P, kappa, V domains shown, Humanized, human IgG4 / kappa) VH: QVQLVQSGAEVKKPGASVKVSCKASGYFFTSYWMNWVRQAPGQGLEWMGMIHPYDSETRYAQKFQGRVTMTVDKSTSTVYMELSSLRSEDTAVYYCASSTTAFAYWGQGTLVTVSS VL: DIQMTQSPSSLSASVGDRVTITCRASQDIGNALNWLQQKPGKAPKRLIYATSSLDPGVPSRFSGSRSGTDYTLTISSLQPEDFATYYCLQYASSPYTFGQGTKVEIKR | 5.23e-11 | 4.82e-11 | 3.18e-11 | 1.81e-11 | 99.5 | 107 | 96.8 | 97.5 | ~5.22 |
| hz84C4-1.3 (antibody, human IgG4 S228P, kappa, V domains shown, Humanized, human IgG4 / kappa) VH: QVQLVQSGAEVKKPGASVKVSCKASGYFFTSYWMNWVRQAPGQGLEWMGMIYPYDSETRYAQKFQGRVTMTVDKSTSTVYMELSSLRSEDTAVYYCASSTTAFAYWGQGTLVTVSS VL: DIQMTQSPSSLSASVGDRVTITCRASQDIGNALNWYQQKPGKAPKRLIYATSSLDPGVPSRFSGSRSGTDFTLTISSLQPEDFATYYCLQYASSPYTFGQGTKVEIKR | ~2.41e-09 | ~6.51e-12 | ~1.43e-09 | 2.13e-09 | 16.9 | 40.7 | 19.4 | 57.5 | 18.2 |
| hz84C4-2.4 (antibody, human IgG4 S228P, kappa, V domains shown, Humanized, human IgG4 / kappa) VH: QVQLVQSGAEVKKPGASVKVSCKASGYYFTSYWMNWVRQAPGQGLEWMGMIHPYDSETRLAQKFKGRVTMTVDKSTSTVYMELSSLRSEDTAVYYCASSTTAFAYWGQGTLVTVSS VL: DIQMTQSPSSLSASVGDRVTITCRASQDIGNALNWLQQKPGKAPKRLIYATSSLDPGVPSRFSGSRSGTDYTLTISSLQPEDFATYYCLQYASSPYTFGQGTKVEIKR | 4.68e-11 | 1.57e-10 | 6.52e-11 | 1.12e-11 | 95 | 95.6 | 92.7 | 101 | ~5.26 |
| hz84C4-2.3 (antibody, human IgG4 S228P, kappa, V domains shown, Humanized, human IgG4 / kappa) VH: QVQLVQSGAEVKKPGASVKVSCKASGYFFTSYWMNWVRQAPGQGLEWMGMIYPYDSETRYAQKFQGRVTMTVDKSTSTVYMELSSLRSEDTAVYYCASSTTAFAYWGQGTLVTVSS VL: DIQMTQSPSSLSASVGDRVTITCRASQDIGNALNWLQQKPGKAPKRLIYATSSLDPGVPSRFSGSRSGTDYTLTISSLQPEDFATYYCLQYASSPYTFGQGTKVEIKR | ~9.24e-13 | 8.23e-11 | ~2.73e-11 | 8.76e-10 | 44.5 | 33.1 | 23.4 | 57 | 14.5 |
| hz84C4-2.2 (antibody, human IgG4 S228P, kappa, V domains shown, Humanized, human IgG4 / kappa) VH: QVQLVQSGAEVKKPGASVKVSCKASGYFFTSYWMNWVRQAPGQGLEWMGYIHPYDSETRYAQKFQGRVTMTVDKSTSTVYMELSSLRSEDTAVYYCASSTTAFAYWGQGTLVTVSS VL: DIQMTQSPSSLSASVGDRVTITCRASQDIGNALNWLQQKPGKAPKRLIYATSSLDPGVPSRFSGSRSGTDYTLTISSLQPEDFATYYCLQYASSPYTFGQGTKVEIKR | 8.45e-11 | 6.63e-11 | 4.64e-11 | 6.21e-11 | 95.1 | 100 | 95.8 | 15 | ~5.23 |
| hz84C4-1.2 (antibody, human IgG4 S228P, kappa, V domains shown, Humanized, human IgG4 / kappa) VH: QVQLVQSGAEVKKPGASVKVSCKASGYFFTSYWMNWVRQAPGQGLEWMGYIHPYDSETRYAQKFQGRVTMTVDKSTSTVYMELSSLRSEDTAVYYCASSTTAFAYWGQGTLVTVSS VL: DIQMTQSPSSLSASVGDRVTITCRASQDIGNALNWYQQKPGKAPKRLIYATSSLDPGVPSRFSGSRSGTDFTLTISSLQPEDFATYYCLQYASSPYTFGQGTKVEIKR | 1.02e-10 | 6.67e-11 | 9.53e-12 | 3.42e-12 | 92.5 | 82.8 | 91.2 | 98.3 | 6 |
| hz84C4-2.5 (antibody, human IgG4 S228P, kappa, V domains shown, Humanized, human IgG4 / kappa) VH: QVQLVQSGAEVKKPGASVKVSCKVSGYFFTSYWMNWVNQAPGQGLEWMGMIHPYDSETRLAQKFKGRVTMTVDKSTSTVYMELSSLRSEDTAVYYCASSTTAFAYWGQGTLVTVSS VL: DIQMTQSPSSLSASVGDRVTITCRASQDIGNALNWLQQKPGKAPKRLIYATSSLDPGVPSRFSGSRSGTDYTLTISSLQPEDFATYYCLQYASSPYTFGQGTKVEIKR | 4.81e-11 | 6.61e-11 | 1.24e-11 | 8.4e-12 | 99.7 | 98.5 | 102 | 103 | ~5.04 |
